Source: US20090170751A1 (published 2009)

Assays:
Assay in all cases: ELISA-type assay, F3 module coated
[1] = target: T1, Recombinant fibronectin modules ^1-2F3 (Homo sapiens (Human), UniProt P02751 608-809)
T1 construct: Expressed with N-terminal His-tag

[2] = target: T2, Recombinant fibronectin module ^1F3 (Homo sapiens (Human), UniProt P02751 608-700)
T2 construct: Expressed with N-terminal His-tag, purified by Ni-NTA and ion-exchange chromatography; also called ^1F3 module

[3] = target: Recombinant fibronectin module ^3F3 (Homo sapiens (Human), UniProt P02751 810-900)

Measured: binding result

T1 sequence (P02751 608-809 limits assumed): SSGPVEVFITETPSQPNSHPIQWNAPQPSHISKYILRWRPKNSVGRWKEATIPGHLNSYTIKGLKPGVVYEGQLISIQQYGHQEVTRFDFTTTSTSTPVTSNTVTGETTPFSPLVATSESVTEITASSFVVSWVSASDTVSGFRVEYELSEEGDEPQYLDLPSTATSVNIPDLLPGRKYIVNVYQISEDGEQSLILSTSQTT
Recombinant fibronectin module ^3F3, sequence (P02751 other isoform, or with tags, fused parts or gaps limits assumed): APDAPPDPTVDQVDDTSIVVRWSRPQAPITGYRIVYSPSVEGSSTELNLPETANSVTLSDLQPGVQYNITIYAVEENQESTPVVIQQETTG
T2 sequence (P02751 608-700 limits assumed): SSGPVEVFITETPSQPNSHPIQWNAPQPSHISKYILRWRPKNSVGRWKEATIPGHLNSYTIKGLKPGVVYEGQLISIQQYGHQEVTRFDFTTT

B1: FnbpA peptide D3 (S. aureus fibronectin-binding peptide) (peptide)
peptide: GFNKHTEIIEEDTNKDKPSYQFGGHNSVDFEEDTLPK
notes: domain: D3; also called peptide D3 from FnbpA; D3 fragment of S. aureus FnbpA
no binding: [1] | [2] | [3]
